The source of these data is the nanobody polyreactivity screen of Harvey et al. (2022).

The series in a line: yeast display, Sf9 membrane polyspecificity reagent, FACS + sequencing; frameworks hold sequencing errors. An outline of the steps: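 Nanobodies from a synthetic yeast display library (Saccharomyces cerevisiae BJ5465), induced 36–48 hours with galactose, were stained 1 hour at 4 °C with 10% biotinylated, detergent-solubilized Sf9 membrane reagent, enriched on streptavidin microbeads, then FACS-sorted. Anti-HA (expression) and streptavidin (reagent binding) fluorescence set low and high (top ~1%) gates. Polyreactivity labels come from the gate of origin. Genes were colony-PCR amplified, MiSeq 2 × 250 sequenced and filtered by CDR length.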
With “QVQLVESGGGLVQAGGSLRLSCAASGYTFRAYAMGWYRQAPGKEREYVAAISRSGGSTYYADSVKGRFTISRDNAKNTVYLQMNSLKPEDTAVYYCNKVYRWAGYDYWGQGSQVTVSS”, the “polyreactivity (PSR sort gate)” value is “high polyreactivity”.

Turning to “QVQLVESGGGLVQAGGSLRLSCAASGYTFRAYVMGWYRQAPGKERELVAGITRRGGTTYYADSVKGRFTISRDNAKNTVYLQMNSLKPEDTAVYYCNAVFRSGSIPYDSWGQGTQVTVSS”, the “polyreactivity (PSR sort gate)” value is recorded as “high polyreactivity”.

For “QVQLVESGGGLVQAGGSLRLSCAASGYTFRHYAMGWYRQEPGKERELVAAITFNGGTTYYADSVKGRFTISRDNAKNTVYLQMNSLKPEDTAVYYCNALPYSRGRWRPLSAVDYWGQGTQVTVSS”, the “polyreactivity (PSR sort gate)” value was “high polyreactivity”.

For the sequence “QVQLVESGGGLVQAGGSLRLSCAASGYTFRSYTMGWYRQAPGKERELVAAITSRGTSTYYADSVKGRFTISRDNAKNTVYLQMNSLKPEDTAVYYCAAPIYNGYASWQVYYWGQGTQVTVSS”, the “polyreactivity (PSR sort gate)” value is on record as “high polyreactivity”.

With “QVQLVESGGGLVQAGGSLRLSCAASGYTFRWYAMGWYRQAPGKERELVAAISWSTGRTYYADSVKGRFTISRDNAKNTVYLQMNSLKPEDNAVYYCAASYYVYSGGNYLRYDSWGQGTQVTVSS”, the “polyreactivity (PSR sort gate)” value is “high polyreactivity”.

“QVQLVESGGGLVQAGGSLRLSCAASGYTFRYYVMGWYIQAPGQERELVATISRGGRTNYADSVKGRFTISRDNAKNTVYLQMNSLKPEDTAVYYCNARTLYAYITRDYWGQGTQVTVSS”: the “polyreactivity (PSR sort gate)” value is listed as “high polyreactivity”.

Consider “QVQLVESGGGLVQAGGSLRLSCAASGYTFSFNAMGWYRQAPGKEREFVAAIDFGGAGTYYADSVKGRFTISRDTAKKTVYLQMNSLKPEDTAVYYCNARDGVTTEFDYWGQGTQVTVAS”, for which the “polyreactivity (PSR sort gate)” value is on record as “low polyreactivity”.

Turning to “QVQLVESGGGLVQAGGSLRLSCAASGYTFSKNTMGWYRQAPGKEREFVAAINWSGGSTYYADSVKGRFTISRDNAKNTVYLQMNSLKPEDTAVYYCAARRGGRRGYDYWGQGTQVTVSS”, the “polyreactivity (PSR sort gate)” value is listed as “high polyreactivity”.

As to “QVQLVESGGGLVQAGGSLRLSCAASGYTFSNNAMGWYRQAPGKERELVAAISRSTGSTYYADSVKGRFTISRDNAKNTVYLQMNSLKPEDTAVYYCAAEYYVDKSSWYDYWGQGTQVTVSS”, the “polyreactivity (PSR sort gate)” value was “high polyreactivity”.

In the case of “QVQLVESGGGLVQAGGSLRLSCAASGYTFSPNDMGWYRQAPGKERELVAAMTSSVGSTYYADSVKGRFTISRDNAKNTVFLQMNSLKPEDTAVFYCAADTWYLGYPDFWLDYWGQGTQVTVSS”, the “polyreactivity (PSR sort gate)” value is “low polyreactivity”.

As for “QVQLVESGGGLVQAGGSLRLSCAASGYTFSRYAMGWYRQAPGKERELVADISRSGGSTDYADSVKGRFTISRDNAKNTVYLQMNSLKPEETAVYYCAKGSWWGYYSYGFDYWGQGTQVTVSS”, the “polyreactivity (PSR sort gate)” value is “high polyreactivity”.

“QVQLVESGGGLVQAGGSLRLSCAASGYTFSYYDMGWYRQAPGKERELVAGISKRGGSTRYADSVKGRFTISRDNAKNTVYLQMNSLKPEDTAVYYCNRLPYLHYAGRLTNYDYWGQGTQVTVSS”: the “polyreactivity (PSR sort gate)” value is recorded as “high polyreactivity”.

As for “QVQLVESGGGLVQAGGSLRLSCAASGYTFSYYTMGRYLQAPGKERELVAVITSAGGTYFADSVKGRFTISRDNAKNTVYLQMNSLKPEDTAVYYCAAERWADYVWIFIDDYDYLGQGTQVTVSS”, the “polyreactivity (PSR sort gate)” value was “low polyreactivity”.

As to “QVQLVESGGGLVQAGGSLRLSCAASGYTFTGYAMGWYRQAPGKERELVAAISWNGGSTFYADSVKGRFTISRDNAKNTVYLQMNSLKPEDTAVYYCATPRKLAYSPKLDYWGQGTQVTVSS”, the “polyreactivity (PSR sort gate)” value is on record as “low polyreactivity”.

Regarding “QVQLVESGGGLVQAGGSLRLSCAASGYTFTQNAMGWYRQAPGQERELVASLTSGGSTDYADSVKGRFTISRDNAKNTVYLQMNSVKPEDTAVYYCAAGTATDVASIGATKDYDYWGQVTQVTVSS”, the “polyreactivity (PSR sort gate)” value was “low polyreactivity”.

With “QVQLVESGGGLVQAGGSLRLSCAASGYTFTRYAMGWYRQAPGKEREFVAAITSGGGSTYYADSVKGRFTISRDNAKNTVYLQMNSLKPEDTAVYYCAADLTSLWYTVQLELDFWGQGTQVTVSS”, the “polyreactivity (PSR sort gate)” value is “low polyreactivity”.

“QVQLVESGGGLVQAGGSLRLSCAASGYTFTSNAMGWYRQAPGKERELVAAITNVGSTNYADSVKGRFTISRDNAKNTVYLQMNSLKPEDTAVYYCAADWDAVYLQTADYDYWGQGTQVTVSS”: the “polyreactivity (PSR sort gate)” value is listed as “low polyreactivity”.

In the case of “QVQLVESGGGLVQAGGSLRLSCAASGYTFVIYAMGWYRQAPGKERELVAAITTIGGRTYYADSVKGRFTISRDNAKNTVYLLMNSLKPEDTAVYYCAADIRSNRLYDGGYWGQGTQVTVSS”, the “polyreactivity (PSR sort gate)” value is given as “low polyreactivity”.

For the sequence “QVQLVESGGGLVQAGGSLRLSCAASGYTFVKYAMGWYRQAPGKERELVASISWSGGRTYYADSVKGRFTISRDNAKNTVYLQMNSLKPEDTAVYYCATRPTWYSYDYWGHGTQVTVSS”, the “polyreactivity (PSR sort gate)” value was “high polyreactivity”.

On to “QVQLVESGGGLVQAGGSLRLSCAASGYTFVVYAMGWYRQAPGKERELVARISSGGSTFYADSVKGRFTISRDNAKNTVYLQMNSLKPEDTAVYYCAAQWTRYRRRPMDYWGQGTQVTVSS”, for which the “polyreactivity (PSR sort gate)” value is recorded as “high polyreactivity”.

For the sequence “QVQLVESGGGLVQAGGSLRLSCAASGYTFVYNGMGWYRQAPGKERELVAAIRRRTGTTYYADSVKGRFTISRDNAKNTVYLQMNSLKPEDTAVYYCAATGFWGYDWGQGTQVTVSS”, the “polyreactivity (PSR sort gate)” value was “high polyreactivity”.

“QVQLVESGGGLVQAGGSLRLSCAASGYTFWDYTMGWYRQAPGKEREFVAAINWSGGSTYYADSVKGRFTISRDNAKKTVYLQMNSLKPEDTAVYYCAARRGGRRGYDYWGQGTQVTVSS”: the “polyreactivity (PSR sort gate)” value was “high polyreactivity”.

Turning to “QVQLVESGGGLVQAGGSLRLSCAASGYTFWDYTMGWYRQAPGKERELVAAISSSGSSTYYADSVKGRFTISRDNAKNTVYLQMNSLKPEDTAVYYCAAYSRRQWKYDYWGQGTQVTVSS”, the “polyreactivity (PSR sort gate)” value is listed as “high polyreactivity”.

Regarding “QVQLVESGGGLVQAGGSLRLSCAASGYTFYANAMGWYRQAPGKEREFVASINYSGGSTYYADSVKGRFTISRDNAKNTVYLQINSLKPEDTSVYYCAARTGTLDDWDYAYDYWGQGTQVTVSS”, the “polyreactivity (PSR sort gate)” value is given as “low polyreactivity”.

On to “QVQLVESGGGLVQAGGSLRLSCAASGYTFYAYAMGWYRQAPGKERELVATISSGGRTYYADSVKGLFTISRDNAKNTVYLQMNSLKPEDTAVYYCAARKTRYISRFDYWGQGTQVTVSS”, for which the “polyreactivity (PSR sort gate)” value is given as “high polyreactivity”.

In the case of “QVQLVESGGGLVQAGGSLRLSCAASGYTFYFYAMGWYRQAPGKEREFVAAIRSSGGRTYYADSVKGRFTISRDNAKNTVYLQMNSLKPEDTAVYYCAAAGYYYSVDGAGPRYDYWGQGTQVTVSS”, the “polyreactivity (PSR sort gate)” value is on record as “low polyreactivity”.

“QVQLVESGGGLVQAGGSLRLSCAASGYTFYIYVMGWYRQAPGKERELVAAISSGDSTNYADSVKGRFTISRDNAKNTVYLQMNSLKPEDTAVYYCNAVHRSIARGGGMDYWGQGTQVTVSS”: the “polyreactivity (PSR sort gate)” value is “low polyreactivity”.

As to “QVQLVESGGGLVQAGGSLRLSCAASGYTFYKNTMGWYRQAPGKERELVARISRSGGSTYYADSVKGRFTISRDNAKNTVYLQMNSLKPEDTAVYYCAVRQGYRSGIYEYDYWGQGTQVTVSS”, the “polyreactivity (PSR sort gate)” value was “high polyreactivity”.

Take “QVQLVESGGGLVQAGGSLRLSCAASGYTFYPYDIGWYRQAPGKERELVAAISWSGGGTYYADSVKGRFTISRDNAKNTVYLQMNSLKPEDTAVYYCAADLKALNQSYPGYEYWGQGTQVTVSS”: the “polyreactivity (PSR sort gate)” value is on record as “low polyreactivity”.

Consider “QVQLVESGGGLVQAGGSLRLSCAASGYTFYQYAMGWYRQAPGKESELVADISRSGVSTYYADSVKGRFTISRDNAKNTVYLQMNSLKPEDTAVYYCAARRPFYRQLDYWGQGTQVTVSS”, for which the “polyreactivity (PSR sort gate)” value is recorded as “high polyreactivity”.

In the case of “QVQLVESGGGLVQAGGSLRLSCAASGYTFYVYAMGWYRQAPGTERELVADISTSDGSTYYADSVKGRFTISRDNAKNTVYLQMNSLKPEDTAVYYCNTDGSHGLYDWFWPANNDYWGQGTQVTVSS”, the “polyreactivity (PSR sort gate)” value is listed as “low polyreactivity”.

“QVQLVESGGGLVQAGGSLRLSCAASGYTFYYNTMGWYRQAPGKERELVARINSAGRTNYADSVKGRFTISRDNAKNTVYLQMNSLKPKDTAVYYCAADGPANPDELKVNDFDYWGQGTQVTVSS”: the “polyreactivity (PSR sort gate)” value is listed as “high polyreactivity”.

In the case of “QVQLVESGGGLVQAGGSLRLSCAASGYTFYYSMGWYRQAPGKERELVAAISAGGGRTYYADSVKGRFTISRDNAKNTVYLQMNSLKPEDTAVYYCNRVYRLTAYGYDYWGQGTQVTVSS”, the “polyreactivity (PSR sort gate)” value is listed as “high polyreactivity”.

In the case of “QVQLVESGGGLVQAGGSLRLSCAASGYTILSYGMGWYRQAPGKERELVADISSGDRTNYADSVKGRFTISRDNAKNTVYLQMNSLKPEDTAVYYCNADRASSSVGYSDDFGHDSWGQGTQVTVSS”, the “polyreactivity (PSR sort gate)” value is recorded as “low polyreactivity”.

“QVQLVESGGGLVQAGGSLRLSCAASGYTIYIYAMGWYRQAPGKEREFVATISRSGGSTSYADSVKGRFTISRDNAKNTVYLQMNSLKPEDTSVYYCAAEWGYYAVGAQYYYWGQGTQVTVSS”: the “polyreactivity (PSR sort gate)” value was “high polyreactivity”.

Turning to “QVQLVESGGGLVQAGGSLRLSCAASGYTLFRNAMGSYRQAPGKERELGAAISRSGARTYYADSVKGRFTISRDNAKNTVYLQMNSLKPEDTAVYYCAAVIKWTKDDYWGQGTQVTVSS”, the “polyreactivity (PSR sort gate)” value is given as “high polyreactivity”.

For “QVQLVESGGGLVQAGGSLRLSCAASGYTLGTYAMGWYRQAPGKERELVAAITWSGGRTNYADSVKGRFTISRDNAKNTVYLQMNSLKPEDTAVYYCAARYYFPFRRFRRMDYWGQGTQVTVSS”, the “polyreactivity (PSR sort gate)” value was “high polyreactivity”.

For “QVQLVESGGGLVQAGGSLRLSCAASGYTLKWYTMGWYRQAPGKERELVATIRRGGGTYYADSVKGRFTISRDNAKNTVYLQMNSLKPEDTAVYYCNARDRRRTNLLDYWGQGTQVTVSS”, the “polyreactivity (PSR sort gate)” value is “low polyreactivity”.

For “QVQLVESGGGLVQAGGSLRLSCAASGYTLSLNAMGWYRQAPGKEREFVARISGRGGSTYYADSVKGRFTISRDNAKNTVYLQMNSLKPEDTAVYYCAATWWPWGTDNRGMYYWGQGTQVTVSS”, the “polyreactivity (PSR sort gate)” value is reported as “high polyreactivity”.

Take “QVQLVESGGGLVQAGGSLRLSCAASGYTRFYAMGWYRQAPGTERELVAAISSSGGTTYYADSVKGRFTISRDNAKNTVYLQMNSLKPEDTAVYYCAKYVSYSRTLYDYWGQGTQVTVSS”: the “polyreactivity (PSR sort gate)” value was “low polyreactivity”.
